Key:
[1] = tested on: lungs of athymic mice with or without HCC827 lung micrometastases; assay: Radioisotopic/X-ray imaging; assay type: in vivo
Procedure: (§1) Under an approved protocol (No. 07-2018-2021), all animal procedures followed the ethical regulations for handling laboratory animals (NOM-062-ZOO-1999) and the Institutional Animal Care and Use Committee requirements. Male Nu/Nu (UPEAL, […], I.PN., Mexico City, Mexico) mice aged 6–8 weeks were maintained in a pathogen-free barrier facility. Mice were injected with 3.7 MBq (50 µL) of ^177Lu DOTA-PD-L1-I or 3.7 kBq (50 µL) of ^225Ac-HEHA-PD-L1-i in the tail vein and sacrificed at 0.5, 1, 3, 24, 72, and 96 h (n = 3). The heart, lungs, liver, pancreas, spleen, kidneys, small intestine, brain, and stomach were dissected to be measured in a NaI(Tl) radioactivity detector. The results are expressed as the percentage of injected dose (%ID) per organ. Blood samples were also extracted, and the activity was recorded as %ID/g. A second group of mice was inoculated intravenously with 1 × 10^6 HCC827 cells. The animals were treated with 3.7 MBq (50 µL) of ^177Lu DOTA-PD-L1-i (n = 3) or 3.7 kBq (50 µL) of ^225Ac-HEHA-PD-L1-i (n = 3) via tail vein injection on day five post-tumor cell inoculation. The animals were dissected as described above. In the case of ^177Lu DOTA-PD-L1-i, radioisotopic/X-ray in vivo/ex vivo images were obtained in a Preclinical Imaging System (Bruker, XTREME). For in vivo imaging, mice were anesthetized with oxygen and 2% isoflurane.

[2] = tested on: mice inoculated with HCC827 lung cancer cells; assay: Creatinine and liver enzyme levels; assay type: in vivo
Procedure: Mouse blood samples collected at 96 h after radiopharmaceutical administration were used for the determination of alanine aminotransferase (ALT), creatinine, and aspartate aminotransferase (AST). Creatinine was measured titrimetrically. The picrate method was used. AST and ALT were quantified using a Roche Diagnostics kit for UV assays.

HCC827 cells = assay: Cell viability assay (flow cytometry, Muse Count & Viability Kit); assay type: cell-based, human; conditions: 5 h
Procedure: The effect of ^177Lu DOTA-PD-L1-i, ^225Ac-HEHA-PD-L1-i, and PD-L1-i on HCC827 cell viability (5 × 10^4) was determined by flow cytometry with the Muse® Count & Viability Kit from Luminex, DiaSorin, USA. Before taking readings with the Muse Cell Analyzer (Merck Millipore, Burlington, MA, USA) previously calibrated with the Muse® System Check kit, the baseline detection was established using a fresh sample of untreated cells that served to delimit the size and granularity of the cell line, as well as the basal viability of the population. Also, the reading window for dead cells was established using an aliquot of the same population treated with 0.5% Triton-X100. Once the detection window for the HCC827 cells was established to discriminate between live and dead cells, 50 µL (2 × 10^4 cells/200 µL) were taken from the cell suspension that had been treated with cold ligand (PD-L1-i, 0.1 µg), with 1.4 MBq of ^177Lu DOTA-PD-L1-i or 0.37 kBq of ^225Ac-HEHA-PD-L1-i for 5 h and then mixed with 450 µL of the viability reagent; after 5 min incubation at room temperature and in the dark, the samples were read in triplicate. For the calculation of the radiation absorbed dose to cell nuclei, the total number of nuclear transformations (N) normalized to the unit of administered activity (Bq^.s/Bq) was obtained with the A(t) mathematical integration (from t = 0 to t = 5 h). […]

[3] = tested on: kidney and liver tissues from mice; assay: Histopathological assessment (H&E); assay type: in vivo
Procedure: Healthy lungs, kidneys, liver, and lungs from mice injected i.v. with HCC827 cells were fixed with 4% paraformaldehyde for 24 h at room temperature, embedded in paraffin, and sectioned in 4–5 µm thick sections using a microtome. Paraffin sections of lung samples were deparaffinized in xylene and rehydrated in a series of graded alcohols. Dewaxed tissue sections were stained with hematoxylin and eosin (H&E). The sections were assessed using a light microscope (magnification of 100x) (Zeiss; Mod. Axioscope: Oberkochen, Germany). Images were acquired with a digital camera (5 MP high-speed color; AmScope; Mod.Mu500: Irvine, CA, USA).

[4] = tested on: mice intravenously injected with HCC827 lung cancer cells (PD-L1+); assay: Biodistribution and biokinetic models in mice with HCC827 lung micrometastases; assay type: in vivo, Nu/Nu mice
Procedure: as §1
The %ID values were used to obtain the biokinetic models ( qht ). The Ah(t) functions were obtained by decay-correcting the biokinetic models, that is, by adding to the biological constant (λB ) the radioactive constant (λR ), as follows (Equation (1)):(1) At=Be^−(λR+λB)t+Ce^−(λR+λB)t+De^−(λR+λB)t

healthy mice = assay: Biodistribution in healthy mice; assay type: in vivo, Nu/Nu mice; conditions: tail vein, 3.7 MBq 177Lu or 3.7 kBq 225Ac, 0.5-96 h, n = 3
Procedure: as §1

[5] = Serum stability by radio-HPLC; assay type: in vitro ADME, human
Procedure: (§2) The radiochemical purity of the radioconjugates was determined by reversed-phase HPLC (Waters) with radiometric and UV-vis detectors. The analysis was carried out with a Discovery C18 column (particle size: 5 µm, length: 25 cm, diameter: 4.6 mm). A linear gradient (rate flow: 1 mL/min) of CH3CN-0.1% TFA (B)/H2O-0.1%TFA (A), from 100% to 10% of A in 30 min, was used. For ^225Ac-HEHA-PD-L1-i, fractions of 1.0 mL were collected, and the activity was evaluated in a NaI(Tl) detector (Auto In-v-tron 4010; NML Inc., Houston, TX, USA).
(§3) The ^225Ac-HEHA-PD-L1-i and ^177Lu-DOTA-PD-L1-i stability was evaluated in the medium they were obtained after labeling (water/ascorbic acid/sodium acetate) at 0.33, 3, 24, 48, and 72 h with radio-HPLC, as previously described. The conjugate solutions were diluted in human serum (5x) for stability assessment. The conjugates (n = 3) were incubated at 37 °C, and samples were taken at 0.33, 3, 24, 48, and 72 h.

[6] = tested on: HCC827 human lung cancer cells (PD-L1 positive) vs C6 mouse glioma cells (PD-L1 negative); assay: Cellular uptake assay; assay type: cell-based; conditions: 1 × 10^5 cells/tube in PBS pH 7, 37 °C, 1 h; 177Lu 4 kBq, 225Ac 0.04 kBq; NaI(Tl) counting; n = 6 / n = 3 (method)
Procedure: HCC827 human lung cancer (PD-L1 positive) and C6 mouse glioma (PD-L1 negative) cell lines were cultured in RPMI-1640 medium with penicillin and streptomycin (100 µg/mL) and fetal bovine serum (15%) in 5% CO2 at 37 °C. Cells diluted in PBS (pH 7) (1 × 10^5 cells/tube) received two different treatments: (a) ^177Lu-DOTA-PD-L1-i (4 kBq) (n = 3) and (b) ^225Ac-HEHA-PD-L1-i (0.04 kBq) (n = 3). Cells were incubated with each treatment at 37 °C for 1 h. After incubation, tubes were measured in a NaI(Tl) detector to determine the initial activity (100%). The tubes were centrifuged at 500× g for 10 min. Then, a mixture of acetic acid/0.5 M NaCl was added, and the centrifugation was repeated. The liquid was removed, and the button activity was measured, corresponding to the percentage of activity captured by the cells regarding the initial activity.

[7] = Stability in labeling medium (water/ascorbic acid/sodium acetate) by radio-HPLC; assay type: physicochemical; conditions: injectable-grade water/ascorbic acid/sodium acetate; 72 h after labeling (225Ac-HEHA: 72 h after purification); reversed-phase C18 radio-HPLC (225Ac: 1 mL fractions counted in NaI(Tl) detector)
Procedure: as §2, §3

[8] = ex vivo lungs, radioisotopic imaging
[9] = lungs invaded with HCC827 cancer cells

For CCCC[C@H]1C(=O)N(C)[C@@H](CCCC)C(=O)N[C@@H](CCCNC(=S)Nc2ccc(C[C@H]3CN(CC(=O)O)CCN(CC(=O)O)CCN(CC(=O)O)CCN3CC(=O)O)cc2)C(=O)N[C@H](C(=O)NCC(N)=O)CSCC(=O)N[C@@H](Cc2ccc(O)cc2)C(=O)N(C)[C@@H](C)C(=O)N[C@@H](CC(N)=O)C(=O)N2CCC[C@H]2C(=O)N[C@@H](Cc2c[nH]cn2)C(=O)N[C@@H](CC(C)C)C(=O)N2C[C@H](O)C[C@H]2C(=O)N[C@@H](Cc2c[nH]c3ccccc23)C(=O)N[C@@H](CO)C(=O)N[C@@H](Cc2cn(C)c3ccccc23)C(=O)N1C [^177Lu-DOTA-PD-L1-i, metal not drawn], the “lung uptake pattern, average number of emitted photons per normalized area, mice in which metastases were not induced” value [1, 8] was 78 ± 32 photons/cm^2, the “lung uptake pattern, average number of emitted photons per normalized area, mice with metastatic HCC827 cells” value [1, 8] was 298 ± 82 photons/cm^2 and the “tissue accumulation in radioisotopic images” value ([1]; in vivo and ex vivo, athymic mice with lung micrometastases, 30 min, 24 and 72 h) was “the only tissue that accumulated the radiotracer was the lung invaded by HCC827 cancer cells”. For the same compound, the Creatinine ([2]; 96 h after 3.7 MBq 177Lu or 3.7 kBq 225Ac, day 5 after i.v. HCC827 inoculation, mean ± SD, n = 3, control 0.198 ± 0.057) was 0.199 ± 0.062 mg/dL, the “Alanine Aminotransferase (ALT)” value ([2]; 96 h after 3.7 MBq 177Lu or 3.7 kBq 225Ac, day 5 after i.v. HCC827 inoculation, mean ± SD, n = 3, control 71 ± 7) was 68 ± 4 IU/L and the “Aspartate Aminotransferase (AST)” value ([2]; 96 h after 3.7 MBq 177Lu or 3.7 kBq 225Ac, day 5 after i.v. HCC827 inoculation, mean ± SD, n = 3, control 150 ± 13) was 143 ± 14 IU/L. The “effect on the function of liver and kidney” value ([2]; ALT, creatinine, AST vs control group (Table A1)) was “No significant cytotoxic effect”, the “net decrease in alive cells regarding the control group (representative histogram)” value (HCC827 cells; 177Lu 15 Gy, 225Ac 5 Gy) was 30% and the net decrease viability (HCC827 cells; 177Lu-DOTA-PD-L1-i 15 Gy (1.4 MBq/20,000 cells), 225Ac-HEHA-PD-L1-i 5 Gy (0.37 kBq/20,000 cells), PD-L1-i 0.1 µg/20,000 cells, read in triplicate) was 31.42 ± 2.01%. For the same compound, the “histological staining (H&E) of liver and kidney” value ([3]; mice exposed to the radiopharmaceuticals) was “no pathologic changes in the liver and kidney”, the “λ, kidney, fast phase” value ([4]; kidneys, biokinetic model) was 3.65 and the “λ, kidney, slow elimination slope” value ([4]; kidneys, biokinetic model) was 0.009. The “half-life, kidney, slow elimination slope” value ([4]; kidneys, t1/2 = ln2/λ) was 77 h, the “half-life, kidney, fast phase” value ([4]; kidneys, t1/2 = ln2/λ, 177Lu 3.7 MBq, 225Ac 3.7 kBq i.v.) was 0.19 h and the “λ, liver, fast phase” value ([4]; liver, biokinetic model) was 1.23. The “λ, liver, slow phase” value ([4]; liver, biokinetic model) was 0.01, the “fraction of activity taken up in the liver cleared rapidly” value ([4]; liver, fast phase (hepatobiliary elimination), 3.7 MBq i.v.) was “seventy-four” and the “fraction of activity taken up in the liver cleared slowly” value ([4]; liver, slow phase) was “twenty-six”. The “half-life, liver, fast phase” value ([4]; liver, t1/2 = ln2/λ) was 0.56 h, the “half-life, liver, slow phase” value ([4]; liver, t1/2 = ln2/λ, 177Lu 3.7 MBq, 225Ac 3.7 kBq i.v.) was 69 h and the “fraction of lung uptake activity with the long half-life” value [4, 9] was “Ninety”. The “fraction of lung uptake activity with the short half-life” value [4, 9] was “ten”, the “half-life, lung, long component” value [4, 9] was 346.5 h and the “half-life, lung, short component” value [4, 9] was 17.3 h. For the same compound, the “biodistribution profile in healthy mice” value (healthy mice) was “rapid blood clearance with renal and hepatobiliary elimination and no accumulation in normal tissues”, the remaining at 72 h ([5]; diluted in human serum (5x), 37 °C, 72 h, reversed-phase C18 radio-HPLC, n = 3, read-out: radiochemical purity after 72 h in human serum) was over 97.5% and the “uptake in HCC827 cells relative to C6 cells” value [6] was “approximately fourteen”. For the same compound, the “radiochemical purity after 72 h in water” value [7] was “greater than 97.5 ± 0.5%”.
For CCCC[C@H]1C(=O)N(C)[C@@H](CCCC)C(=O)N[C@@H](CCCNC(=S)Nc2ccc(CC3CN(CC(=O)O)CCN(CC(=O)O)CCN(CC(=O)O)CCN(CC(=O)O)CCN(CC(=O)O)CCN3CC(=O)O)cc2)C(=O)N[C@H](C(=O)NCC(N)=O)CSCC(=O)N[C@@H](Cc2ccc(O)cc2)C(=O)N(C)[C@@H](C)C(=O)N[C@@H](CC(N)=O)C(=O)N2CCC[C@H]2C(=O)N[C@@H](Cc2c[nH]cn2)C(=O)N[C@@H](CC(C)C)C(=O)N2C[C@H](O)C[C@H]2C(=O)N[C@@H](Cc2c[nH]c3ccccc23)C(=O)N[C@@H](CO)C(=O)N[C@@H](Cc2cn(C)c3ccccc23)C(=O)N1C (stereo partly shown) [^225Ac-HEHA-PD-L1-i, metal not drawn], the “effect on the function of liver and kidney” value ([2]; mouse, in vivo) was “No significant cytotoxic effect”, the “histological staining (H&E) of liver and kidney” value ([3]; mouse, in vivo) was “no pathologic changes in the liver and kidney” and the “Ac-225 activity present in bone” value ([4]; mouse, in vivo) was 0.3 ± 0.2 % ID/g. For the same compound, the “biokinetic model A(t), kidney” value ([4]; mouse, in vivo) was 12.60e^-3.65t + 8.14e^-2.54t, the “biokinetic model A(t), liver” value ([4]; mouse, in vivo) was 25.3e^-1.90t + 17.4e^-0.01t and the “biokinetic model A(t), lung (HCC827 cancer cells)” value ([4]; mouse, in vivo) was 11.20e^-0.002t + 1.73e^-1.20t. The “half-life, kidney, second component” value ([4]; mouse, in vivo) was 0.27 h, the “injected dose in kidney eliminated with half-life 0.19 h” value ([4]; mouse, in vivo) was 12.6 % of the injected dose and the “injected dose in kidney eliminated with half-life 0.27 h” value ([4]; mouse, in vivo) was 8.14 % of the injected dose. The “injected dose retained in liver and eliminated with the slow half-life” value ([4]; mouse, in vivo) was 17.4 % of the injected dose, the “half-life, kidney, fast phase” value ([4]; mouse, in vivo, iv) was 0.19 h and the “half-life, liver, slow phase” value ([4]; mouse, in vivo, iv) was 69.3 h. The “uptake in lung micrometastases” value ([4]; mouse, in vivo, iv) was over 30 % ID, the “radiochemical purity after 72 h in human serum” value [5] was 64 ± 4% and the “rate of decrease of radiochemical purity in human serum” value [5] was “approximately 0.388 %/h”.

From PMC10418980, “Synthesis and Evaluation of ^177Lu-DOTA-PD-L1-i and ^225Ac-HEHA-PD-L1-i as Potential Radiopharmaceuticals for Tumor Microenvironment-Targeted Radiotherapy” (International Journal of Molecular Sciences, 2023)
